Results: US20170030918A1 (MOR NUCO ENTERPRISES, published 2017)

What was measured:
serotransferrin = molecular target: T1, serotransferrin (human, UniProt P02787 20-698); test: 2-D gel / western blot of patient sera
T1 construct: Protein from patient sera on a denaturing 2-D blot; also called Serrotransferrin
Description: (§1) Serum was prepared from 5 ml of blood collected by venipuncture (with tourniquet) in standard B & D 13×100 (7 ml) vacutainer clot tubes (or equivalent) with or without hemoguard closure. After approximately 30 min at room temperature to allow for clotting, the clot was pelleted by centrifugation for 5 to 10 min at 2,500 to 3,000 rpm. Clot-free serum was decanted into a clean tube, labeled and analyzed fresh or stored frozen.
(§2) For western blot analysis, 30 μl of sera was added to 120 μl of Rehydration Buffer (7 M urea, 2 M thiourea, 2% (w/v) CHAPS [(3-[(3-cholamidopropyl)dimethylammonio]-1-propane-sulfonate), a nondenaturing zwitterionic detergent], 0.5% (w/v) ASB-14 (amidosulfobetaine-14, a zwitterionic detergent), 0.5% (v/v) ampholytes pH 3-10 (Bio-Rad), 0.5% (v/v) immobilized pH gradient (IPG) buffer pH 3-10 (Amersham-Pharmacia Biotech) and 65 mM dithiothreitol). The samples were quickly vortexed to mix sera with Rehydration Buffer. Four to six mg of protein were loaded for analysis. The samples were electrophoresed in the first dimension by using a commercial flatbed electrophoresis system (Ettan IPGphor 3, Amersham-Pharmacia Biotech) with IPG dry strips (Amersham). A linear pH range of 3 to 10 on 7 cm IPG strips was used. The IPG strips were rehydrated with the samples overnight at room temperature. […]

serum albumin = molecular target: T2, serum albumin (human, UniProt P02768 25-609); test: 2-D gel electrophoresis / western blot of patient sera
T2 construct: Protein from patient sera on a denaturing 2-D blot; also called Ab
Description: as §1, §2

T1 sequence (P02787 20-698 limits assumed): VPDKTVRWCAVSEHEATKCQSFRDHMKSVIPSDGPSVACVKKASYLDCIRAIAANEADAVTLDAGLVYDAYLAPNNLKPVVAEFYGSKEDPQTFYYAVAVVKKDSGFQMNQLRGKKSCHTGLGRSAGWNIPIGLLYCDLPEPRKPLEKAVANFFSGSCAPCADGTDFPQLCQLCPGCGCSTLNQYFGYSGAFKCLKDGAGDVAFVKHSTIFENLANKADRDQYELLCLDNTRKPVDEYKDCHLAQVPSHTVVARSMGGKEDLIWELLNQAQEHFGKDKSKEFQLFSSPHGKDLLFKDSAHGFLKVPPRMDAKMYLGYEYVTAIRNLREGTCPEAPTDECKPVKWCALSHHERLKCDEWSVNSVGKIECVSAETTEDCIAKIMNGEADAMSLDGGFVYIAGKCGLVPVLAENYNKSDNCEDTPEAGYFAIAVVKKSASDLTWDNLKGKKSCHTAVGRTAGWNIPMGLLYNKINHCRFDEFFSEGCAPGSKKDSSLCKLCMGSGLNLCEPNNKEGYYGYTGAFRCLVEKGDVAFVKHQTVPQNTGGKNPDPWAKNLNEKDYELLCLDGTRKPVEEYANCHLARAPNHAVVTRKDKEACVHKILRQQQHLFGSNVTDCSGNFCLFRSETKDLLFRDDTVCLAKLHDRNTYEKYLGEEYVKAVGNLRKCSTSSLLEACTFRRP
T2 sequence (P02768 25-609 limits assumed): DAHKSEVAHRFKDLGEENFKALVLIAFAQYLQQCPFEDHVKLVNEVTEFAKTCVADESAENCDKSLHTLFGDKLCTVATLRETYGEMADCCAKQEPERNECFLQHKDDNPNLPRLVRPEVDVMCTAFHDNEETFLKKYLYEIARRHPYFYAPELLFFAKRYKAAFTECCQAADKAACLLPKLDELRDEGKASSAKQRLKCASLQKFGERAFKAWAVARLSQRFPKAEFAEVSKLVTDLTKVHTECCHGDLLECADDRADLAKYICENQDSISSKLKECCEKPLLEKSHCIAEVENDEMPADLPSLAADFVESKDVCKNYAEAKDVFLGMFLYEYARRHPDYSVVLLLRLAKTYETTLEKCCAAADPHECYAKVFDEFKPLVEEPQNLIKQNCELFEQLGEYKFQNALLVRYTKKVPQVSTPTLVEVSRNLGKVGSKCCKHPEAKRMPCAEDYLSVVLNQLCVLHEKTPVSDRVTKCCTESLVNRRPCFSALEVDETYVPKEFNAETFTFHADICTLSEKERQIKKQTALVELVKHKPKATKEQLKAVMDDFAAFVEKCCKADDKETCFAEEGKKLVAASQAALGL

B1: recombinant anti-ENOX2 single chain variable region antibody carrying an S-tag, ScFv(S) (scFv)
scFv: EVKLQESGTEVVKPGASVKLSCKASGYIFTSYDIDWVRQTPEQGLEWIGWIFPGEGSTEYNEKFKGRATLSVDKSSSTAYMELTRLTSEDSAVYFCARGDYYRRYFDLWGQGTTVTVSSGGGGSGGGGSGGGGSENVLTQSPAIMSASPGERVTMTCSASSSIRYIYWYQQKPGSSPRLLIYDTSNVAPGVPFRFSGSGSGTSYSLTINRMEAEDAATYYCQEWSGYPYTFGGGTKLELKAKETAAAKFERQHMDS
notes: Derived from the hybridoma that makes the ENOX2-specific monoclonal antibody; also called pan ENOX2 recombinant scFv antibody; recombinant anti-ECTO-NOX antibody (single chain variable region ScFv)
Q: Does B1 bind (serotransferrin)?
A: Result: binds

Q: Does B1 bind (serum albumin)?
A: Result: no binding
